Test [1] deals with T1, Bee Hyaluronidase (bee).
T1 chain: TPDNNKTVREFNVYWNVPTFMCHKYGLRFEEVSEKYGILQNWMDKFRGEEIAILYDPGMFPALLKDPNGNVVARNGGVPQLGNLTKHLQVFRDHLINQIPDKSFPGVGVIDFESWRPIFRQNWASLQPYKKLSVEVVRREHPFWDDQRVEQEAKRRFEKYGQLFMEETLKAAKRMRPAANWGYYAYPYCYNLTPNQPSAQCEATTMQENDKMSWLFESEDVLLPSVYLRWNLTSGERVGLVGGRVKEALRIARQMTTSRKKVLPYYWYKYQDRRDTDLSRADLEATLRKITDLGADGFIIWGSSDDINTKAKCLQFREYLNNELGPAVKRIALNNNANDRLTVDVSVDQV
The test can be described thus: SPR; XPR repeat 1. On the technique in general: Surface plasmon resonance follows binding to a sensor surface in real time, without labels.

Test [2] deals with T1, Bee Hyaluronidase. The test can be described thus: SPR; XPR repeat 2.
The target in test [3] is T1, Bee Hyaluronidase. The test can be described thus: SPR; XPR repeat 2.
Test [4] concerns the target T1, Bee Hyaluronidase. The test can be described thus: SPR.
Test [5] deals with T1, Bee Hyaluronidase. Briefly: SPR.

The text below walks through data of paper PMC5942852 (2018).

Positions count from the first letter of the chain named. Where “and” joins values, the source holds several entries; their conditions need not be identical. Identical values can stand only once.

B1: L14_7 (antibody, V domains shown)
VH: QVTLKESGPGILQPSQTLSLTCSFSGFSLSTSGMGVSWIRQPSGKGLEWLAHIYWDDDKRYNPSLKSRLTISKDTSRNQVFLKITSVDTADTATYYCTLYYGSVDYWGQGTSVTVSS
VL: DIQMTQSPASLSASVGETVTITCRSSRDIKDYITWYQQKQGKSPQLLVYNAKTLAEGVPSRFSGSGSGTEFSLKISSLQPEDFGNYYCQHHYGTRTFGGGTRLEIK
With B1, the results for the koff in test [1] and in test [2] were 0.000115 s⁻¹ and 0.000133 s⁻¹, respectively. The affinity in test [3], expressed as Kd, was 0.962 nM.

B2: WT 2J88 antibody (antibody, V domains shown)
VH: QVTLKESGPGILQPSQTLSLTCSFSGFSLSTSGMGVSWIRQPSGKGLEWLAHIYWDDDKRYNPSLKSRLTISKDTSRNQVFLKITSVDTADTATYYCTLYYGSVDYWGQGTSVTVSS
VL: B1 VL with S25A, R27E, D28N, K30Y, D31S, I33L, E70Q
In the case of B2, the koff (as a rule, a measure of how fast the partners let go of each other) in test [4] is 0.00111 s⁻¹ and 0.0013 s⁻¹ and 0.00116 s⁻¹. In addition, the Kd (usually the concentration at which binding is half-saturated) in test [5] is 10.4 nM and 15.6 nM.
